B1: OR4K15 (parent)
chain: GUUAACGGUCAUAGGCCAUGGAAACUAGGAGCACCAUUUCGCUGCCAGUGAAGAAAUGAACAAAGAAAAUCUGGGCCAGGCAGGCAUCAAAAGAAAUAGUCUUGCGCUCAACCAGAAAGUCUGUAAUCAUUUUAAGGGUA

Variants of: B1
Experiment: self-cleavage, relative activity (ratio to wild type); higher = more cleavage; in vitro, sequencing; the parent is a self-cleaving ribozyme

Variant | self-cleavage
GUUAACGGUCAUAGGCCAUGGAAACUAGGAGCACCAUUUCGCUGCCAGUGAAGAAAUGAACAAAGAAAAUCUGGGCCAGGCAGGCAUCAAAAGAAAUAGUCUUGCGCUCAACCAGGUAGUCUGUAAUCAUUUUAAGGGUA [A116G A117U] | 0.44
GUUAACGGUCAUAGGCCAUGGAAACUAGGAGCACCAUUUCGCUGCCAGUGAAGAAAUGAACAAAGAAAAUCUGGGCCAGGCAGGCAUCAAAAGAAAUAGUCUUGCGCUCAACCUGAAAGUCUGUAACCAUUUUAAGGGUA [A114U U127C] | 0.03
GUUAACGGUCAUAGGCCAUGGAAACUAGGAGCACCAUUUCGCUGCCAGUGAAGAAAUGAACAAAGAAAAUCUGGGCCAGGCAGGCAUCAAAAGAAAUAGUCUUGCGCUCAACCAGCAAGUCUGUAACCAUUUUAAGGGUA [A116C U127C] | 0.03
GUUAACGGUCAUAGGCCAUGGAAACUAGGAGCACCAUUUCGCUGCCAGUGAAGAAAUGAACAAAGAAAAUCUGGGCCAGGCAGGCAUCAAAAGAAAUAGUCUUGCGCUCAACCUGAAAGUCUGGAAUCAUUUUAAGGGUA [A114U U124G] | 0.06
GUUAACGGUCAUAGGCCAUGGAAACUAGGAGCACCAUUUCGCUGCCAGUGAAGAAAUGAACAAAGAAAAUCUGGGCCAGGCAGGCAUCAAAAGAAAUAGUCUUGCGCUCAACCUGAAAGUCUGUAAUCACUUUAAGGGUA [A114U U130C] | 0.01
GUUAACGGUCAUAGGCCAUGGAAACUAGGAGCACCAUUUCGCUGCCAGUGAAGAAAUGAACAAAGAAAAUCUGGGCCAGGCAGGCAUCAAAAGAAAUAGUCUUGCGCUCAACCAAAAGGUCUGUAAUCAUUUUAAGGGUA [G115A A118G] | 0.04
GUUAACGGUCAUAGGCCAUGGAAACUAGGAGCACCAUUUCGCUGCCAGUGAAGAAAUGAACAAAGAAAAUCUGGGCCAGGCAGGCAUCAAAAGAAAUAGUCUUGCGCUCAACCAGGAAGUCUGCAAUCAUUUUAAGGGUA [A116G U124C] | 0.36
GUUAACGGUCAUAGGCCAUGGAAACUAGGAGCACCAUUUCGCUGCCAGUGAAGAAAUGAACAAAGAAAAUCUGGGCCAGGCAGGCAUCAAAAGAAAUAGUCUUGCGCUCAACCUGGAAGUCUGUAAUCAUUUUAAGGGUA [A114U A116G] | 0.01
GUUAACGGUCAUAGGCCAUGGAAACUAGGAGCACCAUUUCGCUGCCAGUGAAGAAAUGAACAAAGAAAAUCUGGGCCAGGCAGGCAUCAAAAGAAAUAGUCUUGCGCUCAACCAAAAAGUCUGUAAUCAUUGUAAGGGUA [G115A U132G] | 0.01
GUUAACGGUCAUAGGCCAUGGAAACUAGGAGCACCAUUUCGCUGCCAGUGAAGAAAUGAACAAAGAAAAUCUGGGCCAGGCAGGCAUCAAAAGAAAUAGUCUUGCGCUCAACCAGGAAGUCCGUAAUCAUUUUAAGGGUA [A116G U122C] | 0.4
GUUAACGGUCAUAGGCCAUGGAAACUAGGAGCACCAUUUCGCUGCCAGUGAAGAAAUGAACAAAGAAAAUCUGGGCCAGGCAGGCAUCAAAAGAAAUAGUCUUGCGCUCAACCUGAAAGUCUAUAAUCAUUUUAAGGGUA [A114U G123A] | 0.11
GUUAACGGUCAUAGGCCAUGGAAACUAGGAGCACCAUUUCGCUGCCAGUGAAGAAAUGAACAAAGAAAAUCUGGGCCAGGCAGGCAUCAAAAGAAAUAGUCUUGCGCUCAACCGGAAAGUCUGUAAACAUUUUAAGGGUA [A114G U127A] | 0.47
GUUAACGGUCAUAGGCCAUGGAAACUAGGAGCACCAUUUCGCUGCCAGUGAAGAAAUGAACAAAGAAAAUCUGGGCCAGGCAGGCAUCAAAAGAAAUAGUCUUGCGCUCAACCUGAAAGUCUGUAAUCAUUUUAAGGGUU [A114U A140U] | 0.1
GUUAACGGUCAUAGGCCAUGGAAACUAGGAGCACCAUUUCGCUGCCAGUGAAGAAAUGAACAAAGAAAAUCUGGGCCAGGCAGGCAUCAAAAGAAAUAGUCUUGCGCUCAACCAGGAAGUCUGUAAUCAUUUUAAGGGUC [A116G A140C] | 0.63
GUUAACGGUCAUAGGCCAUGGAAACUAGGAGCACCAUUUCGCUGCCAGUGAAGAAAUGAACAAAGAAAAUCUGGGCCAGGCAGGCAUCAAAAGAAAUAGUCUUGCGCUCAACCUGAAUGUCUGUAAUCAUUUUAAGGGUA [A114U A118U] | 0.02
GUUAACGGUCAUAGGCCAUGGAAACUAGGAGCACCAUUUCGCUGCCAGUGAAGAAAUGAACAAAGAAAAUCUGGGCCAGGCAGGCAUCAAAAGAAAUAGUCUUGCGCUCAACCAGCGAGUCUGUAAUCAUUUUAAGGGUA [A116C A117G] | 0.04
GUUAACGGUCAUAGGCCAUGGAAACUAGGAGCACCAUUUCGCUGCCAGUGAAGAAAUGAACAAAGAAAAUCUGGGCCAGGCAGGCAUCAAAAGAAAUAGUCUUGCGCUCAACCAAAAAGUCUGUAAUCAUUUUGAGGGUA [G115A A134G] | 0.12
GUUAACGGUCAUAGGCCAUGGAAACUAGGAGCACCAUUUCGCUGCCAGUGAAGAAAUGAACAAAGAAAAUCUGGGCCAGGCAGGCAUCAAAAGAAAUAGUCUUGCGCUCAACCAGGAGGUCUGUAAUCAUUUUAAGGGUA [A116G A118G] | 0.22
GUUAACGGUCAUAGGCCAUGGAAACUAGGAGCACCAUUUCGCUGCCAGUGAAGAAAUGAACAAAGAAAAUCUGGGCCAGGCAGGCAUCAAAAGAAAUAGUCUUGCGCUCAACCGGAAAGUCUGUAAUCAUUCUAAGGGUA [A114G U132C] | 0.24
GUUAACGGUCAUAGGCCAUGGAAACUAGGAGCACCAUUUCGCUGCCAGUGAAGAAAUGAACAAAGAAAAUCUGGGCCAGGCAGGCAUCAAAAGAAAUAGUCUUGCGCUCAACCGGAAAGUCUGUAAUCAUUAUAAGGGUA [A114G U132A] | 0.7
GUUAACGGUCAUAGGCCAUGGAAACUAGGAGCACCAUUUCGCUGCCAGUGAAGAAAUGAACAAAGAAAAUCUGGGCCAGGCAGGCAUCAAAAGAAAUAGUCUUGCGCUCAACCUGAAAGUCUGUAAUCAUUUUGAGGGUA [A114U A134G] | 0.04

Variant | self-cleavage
GUUAACGGUCAUAGGCCAUGGAAACUAGGAGCACCAUUUCGCUGCCAGUGAAGAAAUGAACAAAGAAAAUCUGGGCCAGGCAGGCAUCAAAAGAAAUAGUCUUGCGCUCAACCAGGAAGUCUGUAAUCAUUUUAGGGGUA [A116G A135G] | 0.5
GUUAACGGUCAUAGGCCAUGGAAACUAGGAGCACCAUUUCGCUGCCAGUGAAGAAAUGAACAAAGAAAAUCUGGGCCAGGCAGGCAUCAAAAGAAAUAGUCUUGCGCUCAACCAGGAAGUCUGUAAUCAUUUUGAGGGUA [A116G A134G] | 0.59
GUUAACGGUCAUAGGCCAUGGAAACUAGGAGCACCAUUUCGCUGCCAGUGAAGAAAUGAACAAAGAAAAUCUGGGCCAGGCAGGCAUCAAAAGAAAUAGUCUUGCGCUCAACCAGGAAGUCUGUAAUCAUUUUCAGGGUA [A116G A134C] | 0.7
GUUAACGGUCAUAGGCCAUGGAAACUAGGAGCACCAUUUCGCUGCCAGUGAAGAAAUGAACAAAGAAAAUCUGGGCCAGGCAGGCAUCAAAAGAAAUAGUCUUGCGCUCAACCGGAAAGUCUGUAAUCAUUUCAAGGGUA [A114G U133C] | 0.12
GUUAACGGUCAUAGGCCAUGGAAACUAGGAGCACCAUUUCGCUGCCAGUGAAGAAAUGAACAAAGAAAAUCUGGGCCAGGCAGGCAUCAAAAGAAAUAGUCUUGCGCUCAACCAAAAAGUCUGUAAUUAUUUUAAGGGUA [G115A C128U] | 0.06
GUUAACGGUCAUAGGCCAUGGAAACUAGGAGCACCAUUUCGCUGCCAGUGAAGAAAUGAACAAAGAAAAUCUGGGCCAGGCAGGCAUCAAAAGAAAUAGUCUUGCGCUCAACCAGGAAGCCUGUAAUCAUUUUAAGGGUA [A116G U120C] | 0.27
GUUAACGGUCAUAGGCCAUGGAAACUAGGAGCACCAUUUCGCUGCCAGUGAAGAAAUGAACAAAGAAAAUCUGGGCCAGGCAGGCAUCAAAAGAAAUAGUCUUGCGCUCAACCAGCAAGUCUGUAAUCACUUUAAGGGUA [A116C U130C] | 0.06
GUUAACGGUCAUAGGCCAUGGAAACUAGGAGCACCAUUUCGCUGCCAGUGAAGAAAUGAACAAAGAAAAUCUGGGCCAGGCAGGCAUCAAAAGAAAUAGUCUUGCGCUCAACCGGAAAGUCUGUAAUCAUCUUAAGGGUA [A114G U131C] | 0.15
GUUAACGGUCAUAGGCCAUGGAAACUAGGAGCACCAUUUCGCUGCCAGUGAAGAAAUGAACAAAGAAAAUCUGGGCCAGGCAGGCAUCAAAAGAAAUAGUCUUGCGCUCAACCAGGAAGUCUGUGAUCAUUUUAAGGGUA [A116G A125G] | 0.23
GUUAACGGUCAUAGGCCAUGGAAACUAGGAGCACCAUUUCGCUGCCAGUGAAGAAAUGAACAAAGAAAAUCUGGGCCAGGCAGGCAUCAAAAGAAAUAGUCUUGCGCUCAACCAGCAAGUCUGUAAUCAUCUUAAGGGUA [A116C U131C] | 0
GUUAACGGUCAUAGGCCAUGGAAACUAGGAGCACCAUUUCGCUGCCAGUGAAGAAAUGAACAAAGAAAAUCUGGGCCAGGCAGGCAUCAAAAGAAAUAGUCUUGCGCUCAACCAGGAAGUCUGUAAUCAUUUUAAGGAUA [A116G G138A] | 0.8
GUUAACGGUCAUAGGCCAUGGAAACUAGGAGCACCAUUUCGCUGCCAGUGAAGAAAUGAACAAAGAAAAUCUGGGCCAGGCAGGCAUCAAAAGAAAUAGUCUUGCGCUCAACCGGAAAGUCUGUAAUCACUUUAAGGGUA [A114G U130C] | 0.38
GUUAACGGUCAUAGGCCAUGGAAACUAGGAGCACCAUUUCGCUGCCAGUGAAGAAAUGAACAAAGAAAAUCUGGGCCAGGCAGGCAUCAAAAGAAAUAGUCUUGCGCUCAACCAAAAAGCCUGUAAUCAUUUUAAGGGUA [G115A U120C] | 0.03
GUUAACGGUCAUAGGCCAUGGAAACUAGGAGCACCAUUUCGCUGCCAGUGAAGAAAUGAACAAAGAAAAUCUGGGCCAGGCAGGCAUCAAAAGAAAUAGUCUUGCGCUCAACCAGGAAGUCUGUAAUCAUUUUAAGGGUA [A116G] | 0.47
GUUAACGGUCAUAGGCCAUGGAAACUAGGAGCACCAUUUCGCUGCCAGUGAAGAAAUGAACAAAGAAAAUCUGGGCCAGGCAGGCAUCAAAAGAAAUAGUCUUGCGCUCAACCAGCAAGUCUGUAAUCAUUUUAAGGGUA [A116C] | 0.13
GUUAACGGUCAUAGGCCAUGGAAACUAGGAGCACCAUUUCGCUGCCAGUGAAGAAAUGAACAAAGAAAAUCUGGGCCAGGCAGGCAUCAAAAGAAAUAGUCUUGCGCUCAACCUGAGAGUCUGUAAUCAUUUUAAGGGUA [A114U A117G] | 0.04
GUUAACGGUCAUAGGCCAUGGAAACUAGGAGCACCAUUUCGCUGCCAGUGAAGAAAUGAACAAAGAAAAUCUGGGCCAGGCAGGCAUCAAAAGAAAUAGUCUUGCGCUCAACCUGAAAGUCUGUGAUCAUUUUAAGGGUA [A114U A125G] | 0
GUUAACGGUCAUAGGCCAUGGAAACUAGGAGCACCAUUUCGCUGCCAGUGAAGAAAUGAACAAAGAAAAUCUGGGCCAGGCAGGCAUCAAAAGAAAUAGUCUUGCGCUCAACCAGGAAGUCUGUAUUCAUUUUAAGGGUA [A116G A126U] | 1.04
GUUAACGGUCAUAGGCCAUGGAAACUAGGAGCACCAUUUCGCUGCCAGUGAAGAAAUGAACAAAGAAAAUCUGGGCCAGGCAGGCAUCAAAAGAAAUAGUCUUGCGCUCAACCUGAAAGUCUGUAAUCAUUAUAAGGGUA [A114U U132A] | 0.08
GUUAACGGUCAUAGGCCAUGGAAACUAGGAGCACCAUUUCGCUGCCAGUGAAGAAAUGAACAAAGAAAAUCUGGGCCAGGCAGGCAUCAAAAGAAAUAGUCUUGCGCUCAACCUGAAAGUCUGUAAUCAUUCUAAGGGUA [A114U U132C] | 0.02

Source: the RNAGym collection of RNA variant scans (doi:10.7554/elife.90254)
